PMC5884693 (Cell, 2018)

Molecular target: the molecule itself
Assay: negative stain EM

B1: Drosophila Arc homologue dArc1 (natural protein, UniProt Q7K1U0 1-254, looked up)
chain: MAQLTQMTNEQLRELIEAVRAAAVGAAGSAAAAGGADASRGKGNFSACTHSFGGTRDHDVVEEFIGNIETYKDVEGISDENALKGISLLFYGMASTWWQGVRKEATTWKEAIALIREHFSPTKPAYQIYMEFFQNKQDDHDPIDTFVIQKRALLAQLPSGRHDEETELDLLFGLLNIKYRKHISRHSVHTFKDLLEQGRIIEHNNQEDEEQLATAKNTRGSKRTTRCTYCSFRGHTFDNCRKRQKDRQEEQHEE
binding result: binds
